From patent publication US20160122429A1

Experiments:
Experiment in all cases: cell-based or functional assay
human IL-23 (human) = human IL-23 (human) (UniProt Q9NPF7)
[1] = target: human TNFα (soluble) (human) (UniProt P01375)
[2] = target: human non-cleavable membrane bound TNFα on CHO cells (human) (UniProt P01375)
Chain of human non-cleavable membrane bound TNFα on CHO cells (human) (P01375 whole entry): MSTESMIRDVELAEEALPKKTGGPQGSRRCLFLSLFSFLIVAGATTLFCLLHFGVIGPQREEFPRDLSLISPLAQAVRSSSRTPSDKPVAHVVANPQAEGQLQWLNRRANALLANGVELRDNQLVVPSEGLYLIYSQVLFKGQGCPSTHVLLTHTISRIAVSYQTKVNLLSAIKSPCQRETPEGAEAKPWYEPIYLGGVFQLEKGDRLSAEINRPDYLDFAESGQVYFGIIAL

Chain of human TNFα (soluble) (human) (P01375 77-233 limits assumed): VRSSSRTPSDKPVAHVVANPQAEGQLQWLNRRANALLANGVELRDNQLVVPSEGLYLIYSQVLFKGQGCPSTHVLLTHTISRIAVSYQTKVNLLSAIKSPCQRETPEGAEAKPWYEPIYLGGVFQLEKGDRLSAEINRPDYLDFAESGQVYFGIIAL
Chain of human IL-23 (human) (Q9NPF7 20-189, chain 1 of 2): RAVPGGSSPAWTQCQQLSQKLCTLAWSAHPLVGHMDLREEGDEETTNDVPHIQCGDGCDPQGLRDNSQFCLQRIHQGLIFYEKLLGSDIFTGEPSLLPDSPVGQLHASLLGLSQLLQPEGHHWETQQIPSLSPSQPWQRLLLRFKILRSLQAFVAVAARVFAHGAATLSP
Chain of human IL-23 (human) (P29460 23-328, chain 2 of 2, further chain): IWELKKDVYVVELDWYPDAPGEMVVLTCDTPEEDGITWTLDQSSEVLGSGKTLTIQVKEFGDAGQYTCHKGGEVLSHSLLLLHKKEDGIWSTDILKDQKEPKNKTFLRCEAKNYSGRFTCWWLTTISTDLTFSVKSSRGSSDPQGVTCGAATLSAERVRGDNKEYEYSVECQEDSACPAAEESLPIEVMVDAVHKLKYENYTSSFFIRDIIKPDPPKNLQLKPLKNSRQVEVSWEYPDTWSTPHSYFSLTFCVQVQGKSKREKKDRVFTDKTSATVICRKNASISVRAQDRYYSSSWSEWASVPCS

Row | mIL22 Level (pg/mL) in plasma of mice challenged with human IL-23 (human IL-23 (human)) [pg/mL] | CXCL1 Level (pg/mL) in plasma of mice challenged with human TNFα [1] [pg/mL] | Substance | inhibition of killing of L929 cells by human non-cleavable membrane bound TNFα CHO cells (IC50, MTT assay) [2] [nM]
1 | 132 | 2420 | human IgG1 isotype control antibody | –
2 | – | 633 | Adalimumab with IgG1 isotype (parental TNFα antibody) | 0.581
